Reference: the RNAGym collection of RNA variant scans (doi:10.1073/pnas.2313332121)

B1: TPR t1 (parent)
chain: GACCAAUCUGCCCUCAGAGCUCGAGAACAUCUUCGGAUGCAGAGGAGGCAGGCUUCGGUGGCGCGAUAGCGCCAACGUCCUCAACCUCCAAUGCAUCCCACCACAUGAUGAUGCCUGAAGAGCCUUGGUUUUUUG

Variants of: B1
Assay: polymerase ribozyme fitness, log enrichment relative to wild type (log ratio); higher = more active; in vitro selection for triplet polymerase activity
Procedure, shortened: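 One round of in vitro selection, in triplicate, was applied to PCR-built, transcribed mutant libraries of each subunit of a heterodimeric triplet polymerase ribozyme. The steps were annealing with a biotinylated primer, partner subunit and triplets, incubation frozen at −7 °C, gel excision of extended constructs, streptavidin-bead capture and RT-PCR. Fitness is the logarithm, base 2, of genotype enrichment over wild-type enrichment from inverse-variance-weighted replicate averages of Illumina-sequenced inputs and outputs, keeping genotypes with ≥10 input reads and ≥1 read per output.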

Variant	polymerase ribozyme fitness (log ratio)
U14A C49U G71A	-3.73
C15A C101U U112A	-1.08
U14G C49U G93C C101A	-4.35
U14A A37G G120A	-0.881
C13U U112G	1.14
C13U U112A	1.43
U14G C15G	-5.02
C13U U112A U126G	0.677
U14G A37C	-2.99
U14C U21A G61A G117C	-3.39
U14G A91C C97U	-4.05
U14G C49A U96A	-3.85
U14G A37U A41G G47U C86A U87C	-4.82
C15A G71C C97G G117U	-5.07
U14C A27U G44U C49A C94U G117C G127C	-7.98
C15A U54A C56A	-2.64
U14G C15G U33G C40A C114G U130C	-5.88
C15A C22U C62G A83U C98A C123A U125A	-6.9
U14G G35A A46G U96A C114U	-5.86
U14G C15U C49G G58A U78C	-5.83
C15A A29U	-4.28
C13U U32G	-5.28
U14A C124A U130A	0.939
C15A C56A G117U	0.157

Variant	polymerase ribozyme fitness (log ratio)
C15A C28U G61C	-5.32
U14C G36U C53G G61U	-2.63
U14G C72A U106G	-3.74
C15A G69U	-1.16
C13U U109A	-5.03
C13U U109C	-2.24
C13U U109G	-4.64
U14A A18U G60C	-4.66
C15A A46U G77U	-2.81
C13U G120U	0.513
U14G C73U A90G C124A	1.54
C15A A27G G39A G44A G69U G71U C82U C88U C102U	-6.86
U14A G51U C124U G135A	-3.03
C15A G48U A50G C115U	-4.63
U14G C70G	-3.6
C15A G45A C97U A121G U130G	-0.808
U14C C49U U130A	-2.74
C13U U130A U133A	-1.2
U14A G60C C97G C123A	-5.56
C15A A29C U78A	-4.3
C15A C28G G61A G120A	-2.11
C15A G39C A41U C101U	-3.77
C15A G45U G61U A84U C123U	-2.78
C13U U106A	-0.0681

Variant	polymerase ribozyme fitness (log ratio)
C13U G69A C82U	-2.59
U14C G113A A118U	-4.79
C15A G69C C94U U126A	-5.2
C15A A37C C49A C72G	-2.75
C13U G120C C124U	1.91
C15A C73G	-3.16
C13U U78C C80U	-0.408
U14G U55C C70A G135U	-4.4
U14C A66U	-3.21
C13U U78C U92G U106A	-2.62
U14A G36U A46C A91U C114G A121U G122A	-5.85
U14G C40A C62U	-3.06
C15A G63U	-3.03
C15A A27C U55A	-5.44
C15A G42U C85U G120C	-1.73
C15A A46U C76U C101U C115U	-4.21
U14A G63U G113A	-5.73
C15A G47U C73A C115A A121C U133C	-5.41
U14G U96A G110A	-3.75
U14A A37U G52A U59C G71A	-3.95
C13U U32G G35A G51A C114A G122C	-6.85
C15A G39C C114G	-4.44
U14A C72U C85A G93A	-3.6
U14A A74G G77C G120C	-0.447

Variant	polymerase ribozyme fitness (log ratio)
U14A A50C C80G G120U	-5.23
U14C C53G C73U A83G C94U	-3.11
C15A U126A	-4.9
C15A G47U C80U C86A	-3.28
U14G C76A	-2.76
C13U U116C	1.02
C15A G135U	-2.9
U14A G122A	-1.5
C13U U78A C79A U129G	-3.68
C15A U55G G71A C88A	-2.35
C15A C76A	-2.53
C15A A37U G57A G61C	-3.97
U14A U21A U30G G58C C76U U112C A118C	-5.04
C13U U55G A95U A111C A121U G127C	-0.336
U14A A37C A43U A90U U130G	-2.85
C15A C62U	-2.04
U14A A121U	1.98
U14A C70G U126C G135U	-4.99
C15A U92G	-4.55
C13U G71U U116G	-1.86
U14G G52A G93A	-3.09
C15A G52A G60A U112C U116C	-3.35
U14A A90G	-2.78
U14C C49G A84C U106G U133G	-5.32

Variant	polymerase ribozyme fitness (log ratio)
C15A C40A C70A C97U G120U	-5.14
C13U U33C A50G A84C C124G	-5.51
U14G C34A A121G	-0.374
C15A A43G U96C U112C	-2.05
U14C C56G	-2.27
U14C G93U U112A	-2.43
U14C C102U	-3.54
U14C G60C U96A	-3.46
U14A A74G	-2.63
C15A C80U	-1.68
C13U G71A C79U C123U	1.62
C15A G39A U87G U112G	-2.16
U14G U112A	-0.444
U14A U112G	-0.736
U14A C62G C89U C123A	-3.6
C15A C62U A84G C94U	-3.06
U14A G63C A83U C86A U112A U131A	-2.09
U14A C88G C99U C123U U131G U134A	-3.82
C15A U59A	-2.31
C15A C64U	-2.36
C15A C82U C89A U96A C104U	-3.39
C15A U92C G110C C115U G127U	-6
C15A A24U C70U G77C G110C	-6.25
U14A A105G	-5.21

Variant	polymerase ribozyme fitness (log ratio)
U14A G57C G58A G61A A105C U109G	-6.86
U14G G42C A46C C53U	-4.19
C15A G57C	-1.91
C15A G57U	-2.02
U14A A83U C86A U112A U131A	-2.42
U14C G57U C80A U133A	-3.25
U14G A50C G63C C94A	-3.63
C13U U21C G36C A50G C56A	-1.18
C15A C20G G71U A91C C98G C123U U133G	-4.96
C15A G47C U133C	-3.12
U14G C62U C73U	-2.29
C15A C40U G120C	-0.554
U14A U54A U130G	-4.16
C15A G122A	-1.85
U14G A27U C94A	-5.54
U14G C40G C73A A105U	-4.25
U14A A46U G61A A84U C85U	-4.32
U14A C40U G44C C49A	-3.39
U14A U54A	-2.74
C13U G93U	-0.472
C13U G93A	-0.513
U14A C15A A41U G44A C82A U92G C123A	-5.11
U14A U30A A66U G69U U92G C94A G117C	-6.34
U14G C89G	-3.56

Variant	polymerase ribozyme fitness (log ratio)
U14C C34A U87A	-4.01
C13U U14C A50U G120A	-0.904
U14A G63U C79U	-3.41
U14C C15U G39A G117A	-0.915
C15A C98U G117A	-4.11
C15A C64U G110C	-6.12
U14C C70G	-4.01
U14A G93A C102U	-4.36
C15A C94U C114G U126A	-5.6
U14A G25U C34U G52U C56A A90G G93C C114G A121C G135A	-6.59
U14C U106A G110A U112A	-3.36
C13U G71A U78G U87A U131A	-1.51
C15A A29U C73U C115U U131A	-2.29
U14G A91U A111G	-4.63
U14C G69U A83U C114G C123G	-1.4
C15A G36U G42A C49G G60U	-6.51
U14C A83C	-2.26
C13U G69U C124U G135C	2.21
U14A G48A C53G C64U	-2.48
U14G C40A G42C C80U G120U	-3.6
C15A U78C C88A C102A	-5.8
C15A G117A U129C	-2.87
U14A A91C C115G U133A	-4.89
